Tested on: Escherichia coli TOP10
Assay: shrunken log2 fold change of peptide-encoding DNA abundance (4.5 h post-induction vs induction); higher = less antimicrobial activity (less host growth inhibition)
Conditions: time post-induction: 4.5 h; library: site-saturation at positions 5, 18, 19, 20
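Note: peptides expressed intracellularly from a pBAD plasmid library in pooled LB shake-flask culture, induced with 0.3% L-arabinose, DNA abundance read by NGS, three biological replicates, DESeq2 with apeglm shrinkage.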

Sequence	shrunken log2 fold change
RRIRPRPPRLPRPRPRPMWWPRP	0.189
RRIRYRPPRLPRPRPRPFRWPRP	-0.14
RRIRSRPPRLPRPRPRPYFKPRP	-0.857
RRIRSRPPRLPRPRPRPMQTPRP	0.291
RRIRQRPPRLPRPRPRPPAQPRP	0.0181
RRIRKRPPRLPRPRPRPYTRPRP	-0.167
RRIRRRPPRLPRPRPRPPFSPRP	0.207
RRIRWRPPRLPRPRPRPPYAPRP	0.426
RRIRNRPPRLPRPRPRPCNTPRP	-0.442
RRIRKRPPRLPRPRPRPGHSPRP	-0.0124
RRIRHRPPRLPRPRPRPCACPRP	-0.176
RRIRPRPPRLPRPRPRPWPAPRP	0.0589
RRIRCRPPRLPRPRPRPFCLPRP	-0.327
RRIRYRPPRLPRPRPRPCHAPRP	-0.702
RRIRWRPPRLPRPRPRPGEFPRP	0.17
RRIRGRPPRLPRPRPRPWMYPRP	-0.0352
RRIRYRPPRLPRPRPRPPHVPRP	-0.142
RRIRYRPPRLPRPRPRPDATPRP	0.104
RRIRDRPPRLPRPRPRPHINPRP	-0.683
RRIRMRPPRLPRPRPRPIISPRP	-0.0891
RRIRERPPRLPRPRPRPCWPPRP	0.0214
RRIRERPPRLPRPRPRPLQDPRP	-0.133
RRIRSRPPRLPRPRPRPNLNPRP	-0.307
RRIRMRPPRLPRPRPRPFMNPRP	-0.196
RRIRQRPPRLPRPRPRPPEKPRP	0.917

Sequence	shrunken log2 fold change
RRIRNRPPRLPRPRPRPSSAPRP	-0.0956
RRIRHRPPRLPRPRPRPLLKPRP	-0.013
RRIRDRPPRLPRPRPRPDDRPRP	0.108
RRIRYRPPRLPRPRPRPETLPRP	-0.0879
RRIRYRPPRLPRPRPRPNYIPRP	-1.2
RRIRPRPPRLPRPRPRPTIDPRP	-0.454
RRIRSRPPRLPRPRPRPMSAPRP	0.202
RRIRMRPPRLPRPRPRPHMEPRP	-0.0461
RRIRMRPPRLPRPRPRPANFPRP	-0.000946
RRIRGRPPRLPRPRPRPGHYPRP	0.00558
RRIRPRPPRLPRPRPRPGWWPRP	0.356
RRIRQRPPRLPRPRPRPKKNPRP	0.0205
RRIRMRPPRLPRPRPRPDMCPRP	1.86
RRIRRRPPRLPRPRPRPMMHPRP	0.101
RRIRIRPPRLPRPRPRPRGDPRP	0.389
RRIRWRPPRLPRPRPRPEIDPRP	0.0771
RRIRARPPRLPRPRPRPGGEPRP	0.694
RRIRLRPPRLPRPRPRPKLPPRP	0.492
RRIRERPPRLPRPRPRPLQEPRP	-0.154
RRIRCRPPRLPRPRPRPMDPPRP	-0.543
RRIRRRPPRLPRPRPRPTATPRP	1.56
RRIRSRPPRLPRPRPRPADYPRP	-0.455
RRIRLRPPRLPRPRPRPHTDPRP	-0.223
RRIRARPPRLPRPRPRPKKRPRP	0.626
RRIRVRPPRLPRPRPRPEMLPRP	0.0987

Sequence	shrunken log2 fold change
RRIRWRPPRLPRPRPRPSDWPRP	0.12
RRIRRRPPRLPRPRPRPGWFPRP	0.283
RRIRARPPRLPRPRPRPNFTPRP	0.134
RRIRKRPPRLPRPRPRPLEHPRP	0.156
RRIRERPPRLPRPRPRPSMNPRP	-0.573
RRIRTRPPRLPRPRPRPMSCPRP	-0.181
RRIRMRPPRLPRPRPRPGEPPRP	0.163
RRIRERPPRLPRPRPRPTTNPRP	-0.185
RRIRHRPPRLPRPRPRPNRLPRP	0.0234
RRIRLRPPRLPRPRPRPGMMPRP	0.0343
RRIRSRPPRLPRPRPRPFLQPRP	-0.267
RRIRSRPPRLPRPRPRPNTGPRP	-0.336
RRIRLRPPRLPRPRPRPIAYPRP	-0.0152
RRIRERPPRLPRPRPRPKAMPRP	0.282
RRIRIRPPRLPRPRPRPSMEPRP	-0.343
RRIRKRPPRLPRPRPRPVVVPRP	0.212
RRIRMRPPRLPRPRPRPRPYPRP	0.126
RRIRRRPPRLPRPRPRPQKSPRP	-0.106
RRIRQRPPRLPRPRPRPTADPRP	0.392
RRIRHRPPRLPRPRPRPRLYPRP	0.114
RRIRIRPPRLPRPRPRPYNKPRP	-0.783
RRIRKRPPRLPRPRPRPNFDPRP	0.367
RRIRTRPPRLPRPRPRPWRDPRP	0.00299
RRIRWRPPRLPRPRPRPFKYPRP	-0.00867
RRIRARPPRLPRPRPRPEIYPRP	-0.0195

Sequence	shrunken log2 fold change
RRIRGRPPRLPRPRPRPCKLPRP	-0.378
RRIRTRPPRLPRPRPRPALSPRP	-0.0737
RRIRGRPPRLPRPRPRPSQKPRP	0.0248
RRIRARPPRLPRPRPRPFMWPRP	0.065
RRIRPRPPRLPRPRPRPIASPRP	-0.0044
RRIRDRPPRLPRPRPRPRIYPRP	-0.173
RRIRNRPPRLPRPRPRPQTYPRP	-0.375
RRIRYRPPRLPRPRPRPEQSPRP	0.0157
RRIRDRPPRLPRPRPRPWVNPRP	0.0215
RRIRFRPPRLPRPRPRPFFLPRP	-0.32
RRIRQRPPRLPRPRPRPHILPRP	-0.361
RRIRVRPPRLPRPRPRPKNCPRP	-0.183
RRIRDRPPRLPRPRPRPMPRPRP	0.26
RRIRNRPPRLPRPRPRPTEYPRP	-0.203
RRIRKRPPRLPRPRPRPGNSPRP	-0.0266
RRIRYRPPRLPRPRPRPLRSPRP	0.538
RRIRVRPPRLPRPRPRPFEAPRP	-0.193
RRIRKRPPRLPRPRPRPATAPRP	0.18
RRIRSRPPRLPRPRPRPCKCPRP	-0.359
RRIRERPPRLPRPRPRPLSNPRP	0.0169
RRIRWRPPRLPRPRPRPKKMPRP	0.0841
RRIRYRPPRLPRPRPRPIFTPRP	-0.212
RRIRCRPPRLPRPRPRPMMYPRP	-0.12
RRIRPRPPRLPRPRPRPIVMPRP	-0.445
RRIRERPPRLPRPRPRPKMLPRP	-0.0332

Sequence	shrunken log2 fold change
RRIRNRPPRLPRPRPRPYSFPRP	-1.01
RRIRSRPPRLPRPRPRPIIWPRP	-0.174
RRIRERPPRLPRPRPRPPCGPRP	0.259
RRIRERPPRLPRPRPRPRPRPRP	0.723
RRIRNRPPRLPRPRPRPMPTPRP	0.257
RRIRIRPPRLPRPRPRPKFHPRP	-0.375
RRIRARPPRLPRPRPRPGAIPRP	0.828
RRIRKRPPRLPRPRPRPGNKPRP	-0.0985
RRIRWRPPRLPRPRPRPMIDPRP	-0.579
RRIRKRPPRLPRPRPRPDKRPRP	-0.0063
RRIRTRPPRLPRPRPRPCPMPRP	0.00574
RRIRDRPPRLPRPRPRPKQHPRP	0.0788
RRIRYRPPRLPRPRPRPVHVPRP	-1.35
RRIRTRPPRLPRPRPRPNCMPRP	-0.16
RRIRERPPRLPRPRPRPDTWPRP	-0.295
RRIRIRPPRLPRPRPRPAYKPRP	-1.89
RRIRWRPPRLPRPRPRPMYEPRP	-0.103
RRIRDRPPRLPRPRPRPMHCPRP	-0.00112
RRIRNRPPRLPRPRPRPMTCPRP	-0.0075
RRIRPRPPRLPRPRPRPPTGPRP	0.452
RRIRYRPPRLPRPRPRPFIHPRP	-1.54
RRIRHRPPRLPRPRPRPPNVPRP	-0.0106
RRIRERPPRLPRPRPRPEMKPRP	0.425
RRIRERPPRLPRPRPRPHKVPRP	-0.361
RRIRHRPPRLPRPRPRPIPFPRP	0.0406

Sequence	shrunken log2 fold change
RRIRIRPPRLPRPRPRPTSAPRP	0.065
RRIRVRPPRLPRPRPRPLICPRP	-0.0443
RRIRQRPPRLPRPRPRPRVFPRP	-0.0984
RRIRNRPPRLPRPRPRPCREPRP	-0.109
RRIRSRPPRLPRPRPRPQIGPRP	-1.62
RRIRRRPPRLPRPRPRPPPTPRP	1.12
RRIRFRPPRLPRPRPRPIKTPRP	-0.0134
RRIRDRPPRLPRPRPRPGAMPRP	0.408
RRIRYRPPRLPRPRPRPKADPRP	0.0864
RRIRFRPPRLPRPRPRPNGYPRP	-0.3
RRIRCRPPRLPRPRPRPHERPRP	-0.0193
RRIRGRPPRLPRPRPRPTHIPRP	0.255
RRIRLRPPRLPRPRPRPYMCPRP	-0.252
RRIRIRPPRLPRPRPRPVVSPRP	-0.503
RRIRPRPPRLPRPRPRPHDIPRP	0.152
RRIRHRPPRLPRPRPRPSVFPRP	-0.424
RRIRWRPPRLPRPRPRPPTWPRP	0.802
RRIRCRPPRLPRPRPRPFMIPRP	-0.259
RRIRPRPPRLPRPRPRPALYPRP	-0.0126
RRIRDRPPRLPRPRPRPNEEPRP	-0.019
RRIRCRPPRLPRPRPRPVLDPRP	0.0892
RRIRNRPPRLPRPRPRPNTCPRP	-0.195
RRIRERPPRLPRPRPRPVWSPRP	0.158
RRIRYRPPRLPRPRPRPPDNPRP	-0.185
RRIRTRPPRLPRPRPRPQPFPRP	0.0325
